According to US6942963 (MIT, dated 2005):
Non-standard residues stand in square brackets, D forms with d.

Molecular target: β-amyloid peptide βAP1-42
Experiment: cell-based or functional assay

Chain of β-amyloid peptide βAP1-42 (peptide, as listed by the source): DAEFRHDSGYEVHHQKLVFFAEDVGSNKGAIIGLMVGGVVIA

decrease in aggregation rate of βAP1-42, light scattering at 500 nm, DP16 at 1:1 molar ratio: ~50%
B1: decoy peptide DP16 (+NH3.T.P.I.R+.T.P.A.P.A.COO-) (peptide)
peptide: H-[dT][dP][dI][dR][dT][dP][dA][dP][dA]-OH
